The results in this text go back to patent US20260062490A1 (Innovent, published 2026).

The chains are these.
B1: Her2/Hel bispecific antibody, Combination 1 in Table 3 / Table 9 / Table 10 (anti-Her2: Q39K, F126C, C220S / Q38D, Q124C, C214S; anti-Hel: Q39D / Q38K) (bispecific antibody, human IgG1, kappa, L234A L235A)
heavy 1: not shown
light 1: not shown
heavy 2: EVRLLESGGGLVQPGGSLRLSCAASGFTFSNYAMGWVRDAPGKGLEWVSAISGSGGSTYYADSVKGRFTTSRDDSKNALYLQMNSLRAEDTAVYYCARGGPGWYAADVWGQGTTVTVSSASTKGPSVFPLAPSSKSTSGGTAALGCLVKDYFPEPVTVSWNSGALTSGVHTFPAVLQSSGLYSLSSVVTVPSSSLGTQTYICNVNHKPSNTKVDKKVEPKSCDKTHTCPPCPAPEAAGGPSVFLFPPKPKDTLMISRTPEVTCVVVDVSHEDPEVKFNWYVDGVEVHNAKTKPREEQYNSTYRVVSVLTVLHQDWLNGKEYKCKVSNKALPAPIEKTISKAKGQPREPQVCTLPPSRDELTKNQVSLSCAVKGFYPSDIAVEWESNGQPENNYKTTPPVLDSDGSFFLVSKLTVDKSRWQQGNVFSCSVMHEALHNHYTQKSLSLSPGK
light 2: DIQMTQSPSSLSASVGDRVTITCRASQSISSYLNWYQKKPGKAPKLLIYAASSLQSGVPSRFSGSGSGTDFTLTISSLQPEDFATYYCQQADLPAFAFGGGTKVEIKRTVAAPSVFIFPPSDEQLKSGTASVVCLLNNFYPREAKVQWKVDNALQSGNSQESVTEQDSKDSTYSLSSTLTLSKADYEKHKVYACEVTHQGLSSPVTKSFNRGEC
B2: Her2/Hel bispecific antibody, Combination 4 in Table 3 / Table 9 / Table 10 (anti-Her2: Y91K, F126C, C220S / A43D, Q124C, C214S; anti-Hel: Y91D / A43K) (bispecific antibody, human IgG1, kappa, L234A L235A)
heavy 1: not shown
light 1: not shown
heavy 2: B1 heavy 2 with D39Q, Y95D
light 2: B1 light 2 with K38Q, A43K
B3: Her2/Hel bispecific antibody, Combination 2 in Table 3 / Table 9 / Table 10 (anti-Her2: L45K, F126C, C220S / Y87D, Q124C, C214S; anti-Hel: L45D / Y87K) (bispecific antibody)
heavy 1: not shown
light 1: not shown
heavy 2: B1 heavy 2 with D39Q, L45D
light 2: B1 light 2 with K38Q, Y87K
B4: Her2/Hel bispecific antibody, Combination 5 in Table 3 / Table 9 / Table 10 (anti-Her2: Y91K, F126C, C220S / P44D, Q124C, C214S; anti-Hel: Y91D / P44K) (bispecific antibody, human IgG1, kappa, L234A L235A)
heavy 1: not shown
light 1: not shown
heavy 2: B1 heavy 2 with D39Q, Y95D
light 2: B1 light 2 with K38Q, P44K
B5: Her2/Hel bispecific antibody, Combination 3 in Table 3 / Table 9 / Table 10 (anti-Her2: L45K, F126C, C220S / P44D, Q124C, C214S; anti-Hel: L45D / P44K) (bispecific antibody, human IgG1, kappa, L234A L235A)
heavy 1: not shown
light 1: not shown
heavy 2: B1 heavy 2 with D39Q, L45D
light 2: B1 light 2 with K38Q, P44K

Numbering of substitutions follows the chain as printed. Names and notes keep the numbering of the source.

This assay addresses T1, Human Her2 (Human, UniProt P04626 23-652).
T1 construct: also called antigen Her2
Description: BLI (ForteBio), antibody loaded on ProA sensors, antigen fusion protein in solution, 30 degrees. As for the experimental part:
Biolayer Interferometry (BLI) technology was used to test the equilibration dissociation constant (KD) of bispecific antibody binding to the respective antigens in the present disclosure. The BLI method affinity test was performed using an existing method (Estep, P et al., High throughput solution Based measurement of antibody-antigen affinity and epitope binning. MAbs, 2013.5 (2): Pages 270-8).
Half an hour before the start of the experiment, a suitable number of ProA (ForteBio, 18-5010) sensors based on the sample size were soaked in SD buffer (PBS 1×, BSA 0.1%, Tween-20 0.05%). 100 μL of SD buffer and antigen fusion protein were taken and added to a 96-well black polystyrene half-area microplate (Greiner, 675076), respectively. The sensor position was selected based on the sample position and layout. The instrument setting parameters are as follows: Run steps: Baseline, Loading ˜1 nm, Baseline, Association and Dissociation; the run time of each step depended on the sample binding and dissociation rate, and the rotational speed was 400 rpm and temperature was 30 degrees. ForteBio analysis software was used to analysis the KD value.
Molecule B1 yielded a Kd of 805 pM, a koff of 0.0002 s⁻¹ and a kon of 249000 M⁻¹ s⁻¹.

The molecule B2 showed a Kd of 764 pM, a koff of 0.0002 s⁻¹ and a kon of 262000 M⁻¹ s⁻¹.

B3 registered a Kd of 748 pM, a koff of 0.0002 s⁻¹ and a kon of 268000 M⁻¹ s⁻¹.

B4: binding was characterised by a dissociation constant (Kd) of 720 pM, the koff is 0.0002 s⁻¹ and the kon is 278000 M⁻¹ s⁻¹.

With B5, the affinity, expressed as Kd, was 758 pM; the koff turned out to be 0.0002 s⁻¹; the kon stood at 264000 M⁻¹ s⁻¹.
